In publication PMC3075957 (Nature structural & molecular biology, 2011):

Experiments:
K2Q23K2 [1] = molecular target: K2Q23K2
K2Q23K2 [2] = assay: sedimentation assay with HPLC
K2Q23K2 [3] = assay: seeded elongation kinetics
K2Q23K2 [4] = assay: sedimentation assay with HPLC of the supernatant
[5] = molecular target: the molecule itself; assay: sedimentation assay with HPLC of the supernatant
[6] = Dynamic light scattering of aggregation reactions; type: physicochemical; settings: 166 μM, PBS 37 °C, different incubation times
[7] = Electron microscopy of end-stage aggregates; type: physicochemical; settings: PBS 37 °C, uniform smooth-sided fibrils
[8] = Aggregation time course by HPLC sedimentation assay; type: physicochemical; settings: comparable concentrations, PBS 37 °C

## K2Q23K2 (peptide)
K2Q23K2 [1]
  loss of monomer within two hours (215 μM): < 1%
K2Q23K2 [2]
  critical concentration (Cr) of monomer in equilibrium with fibrils: 3 µM
K2Q23K2 [3]
  kon: 12400 M⁻¹ s⁻¹
K2Q23K2 [4]
  n* (critical nucleus size of aggregation): 3.9
  nucleation equilibrium constant Kn* (monomers to tetrameric nucleus): 0.076 l^3/mol^3
  percent aggregation (215 μM, 27 hrs): 5%

B1: K2Q37K2 (peptide)
peptide: KKQQQQQQQQQQQQQQQQQQQQQQQQQQQQQQQQQQQQQKK
[5]
  n* (critical nucleus size of aggregation): 0.7

B2: K2Q25K2 (peptide)
peptide: KKQQQQQQQQQQQQQQQQQQQQQQQQQKK
[5]
  n* (critical nucleus size of aggregation): 2

B3: SFQ37P10K2 (peptide)
peptide: SFQQQQQQQQQQQQQQQQQQQQQQQQQQQQQQQQQQQQQPPPPPPPPPPKK
[5]
  n* (critical nucleus size of aggregation): 1

B4: AT7^NTQ30K2: peptide consisting of the AT7^NT sequence (29 amino acid N-terminus of ataxin-7) followed by a Q30K2 sequence (peptide)
peptide: MSERAADDVRGEPRRAAAAAGGAAAAAARQQQQQQQQQQQQQQQQQQQQQQQQQQQQQQKK
[6]
  Aggregate formation by DLS versus sedimentation assay: no aggregate formation that was not detected by the sedimentation assay
[7]
  Fibril diameter by electron microscopy: ~10 nm
[8]
  Aggregation rate compared with K2Q30K2: aggregates somewhat slower than K2Q30K2

B5: K2Q24K2 (peptide)
peptide: KKQQQQQQQQQQQQQQQQQQQQQQQQKK
[5]
  n* (critical nucleus size of aggregation): 3.3
